# Experimental data: patent US20090029376
# Substitutions are numbered along the chain they refer to.
# Tests used:
# Assay in all cases: cleavage_in_vitro
# [1] = target: T1, SalI (Streptomyces albus G) (UniProt Q53608); details: NEB3, 37 C; Table 10 prints 4
# T1 sequence: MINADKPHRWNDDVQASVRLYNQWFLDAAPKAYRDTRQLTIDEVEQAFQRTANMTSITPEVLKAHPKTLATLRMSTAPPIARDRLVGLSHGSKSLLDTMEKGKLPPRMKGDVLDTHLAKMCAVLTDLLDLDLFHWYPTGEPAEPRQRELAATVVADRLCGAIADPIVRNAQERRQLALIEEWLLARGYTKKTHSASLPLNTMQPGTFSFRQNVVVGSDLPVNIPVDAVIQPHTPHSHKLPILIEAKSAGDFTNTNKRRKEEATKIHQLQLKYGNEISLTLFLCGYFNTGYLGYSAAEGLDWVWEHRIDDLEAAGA
# [2] = target: T2, SalI-HF R107A (Streptomyces albus G) (UniProt Q53608); details: NEB4, 37 C
# T2 sequence: T1 sequence with R107A
# [3] = system: T3, AvrII (Anabaena variabilis); details: NEB4, 37 C
# T3 sequence: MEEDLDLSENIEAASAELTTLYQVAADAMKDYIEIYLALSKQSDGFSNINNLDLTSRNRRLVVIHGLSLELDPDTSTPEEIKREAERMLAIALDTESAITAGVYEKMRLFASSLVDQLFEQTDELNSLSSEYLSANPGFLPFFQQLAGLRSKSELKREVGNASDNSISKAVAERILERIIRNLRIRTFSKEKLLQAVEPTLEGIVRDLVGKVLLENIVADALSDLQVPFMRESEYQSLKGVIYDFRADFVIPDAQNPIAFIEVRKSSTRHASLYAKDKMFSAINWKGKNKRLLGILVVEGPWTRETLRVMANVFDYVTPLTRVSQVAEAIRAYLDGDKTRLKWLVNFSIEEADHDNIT
# [4] = system: T4, AvrII-HF Y104F (Anabaena variabilis); details: NEB4, 37 C
# T4 sequence: T3 sequence with Y104F
# [5] = target: T5, PvuII-HF T46G (Proteus vulgaris) (UniProt P23657); details: NEB4, 37 C
# T5 sequence: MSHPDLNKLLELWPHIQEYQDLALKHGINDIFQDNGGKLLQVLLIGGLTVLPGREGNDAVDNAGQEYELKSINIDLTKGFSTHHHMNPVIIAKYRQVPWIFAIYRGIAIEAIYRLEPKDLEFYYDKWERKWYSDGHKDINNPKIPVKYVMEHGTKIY
# [6] = target: T6, BamHI(K30A/K52A) K30A/K52A (Bacillus amyloliquefaciens) (UniProt P23940); details: NEB2, 37 C
# T6 sequence: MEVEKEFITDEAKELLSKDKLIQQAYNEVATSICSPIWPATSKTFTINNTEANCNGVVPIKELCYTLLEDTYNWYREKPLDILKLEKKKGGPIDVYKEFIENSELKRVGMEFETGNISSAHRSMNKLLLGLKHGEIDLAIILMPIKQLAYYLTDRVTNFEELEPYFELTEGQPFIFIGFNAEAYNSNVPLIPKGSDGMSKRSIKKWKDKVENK
# [7] = target: T7, BamHI(K30A/K88A) K30A/K88A (Bacillus amyloliquefaciens) (UniProt P23940); details: NEB2, 37 C
# T7 sequence: T6 sequence with A52K, K88A
# [8] = system: T8, BspQI-HF K279P/R388F (Bacillus sphaericus); details: NEB4, 50 C
# T8 sequence: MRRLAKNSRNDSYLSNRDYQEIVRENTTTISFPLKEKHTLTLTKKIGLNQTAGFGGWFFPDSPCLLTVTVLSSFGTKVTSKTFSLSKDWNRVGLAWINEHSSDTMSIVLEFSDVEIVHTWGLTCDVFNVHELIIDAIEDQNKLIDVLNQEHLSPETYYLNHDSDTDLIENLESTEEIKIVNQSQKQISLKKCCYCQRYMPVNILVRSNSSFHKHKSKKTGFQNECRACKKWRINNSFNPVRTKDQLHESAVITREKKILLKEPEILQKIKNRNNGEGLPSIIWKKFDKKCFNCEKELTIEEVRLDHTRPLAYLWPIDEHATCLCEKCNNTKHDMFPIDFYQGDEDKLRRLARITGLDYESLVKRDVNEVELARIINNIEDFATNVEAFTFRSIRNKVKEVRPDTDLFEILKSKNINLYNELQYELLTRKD
substance,measurement,setting,value
HindIII-digested lambda DNA,activity (fidelity index),[1],32
same,activity (fidelity index),[2],> 2000
T7 DNA,activity (fidelity index),[3],32
same,activity (fidelity index),[4],1000
pBR322,activity (fidelity index),[5],500
pUC19,relative cleavage activity (fraction of K30A activity),[6],0.1
same,relative cleavage activity (fraction of K30A activity),[7],0.1
same,activity (fidelity index),[8],> 4000
